According to PMC4404499 (The Biochemical journal, 2014):
Positions count from the first letter of the chain named.

Legend:
Assay in all cases: pull-down
GST-tagged TRIM3 N48A = target: T1, GST-tagged TRIM3 N48A (mouse, UniProt Q9R1R2 1-744, N48A)
T1 sequence (looked up): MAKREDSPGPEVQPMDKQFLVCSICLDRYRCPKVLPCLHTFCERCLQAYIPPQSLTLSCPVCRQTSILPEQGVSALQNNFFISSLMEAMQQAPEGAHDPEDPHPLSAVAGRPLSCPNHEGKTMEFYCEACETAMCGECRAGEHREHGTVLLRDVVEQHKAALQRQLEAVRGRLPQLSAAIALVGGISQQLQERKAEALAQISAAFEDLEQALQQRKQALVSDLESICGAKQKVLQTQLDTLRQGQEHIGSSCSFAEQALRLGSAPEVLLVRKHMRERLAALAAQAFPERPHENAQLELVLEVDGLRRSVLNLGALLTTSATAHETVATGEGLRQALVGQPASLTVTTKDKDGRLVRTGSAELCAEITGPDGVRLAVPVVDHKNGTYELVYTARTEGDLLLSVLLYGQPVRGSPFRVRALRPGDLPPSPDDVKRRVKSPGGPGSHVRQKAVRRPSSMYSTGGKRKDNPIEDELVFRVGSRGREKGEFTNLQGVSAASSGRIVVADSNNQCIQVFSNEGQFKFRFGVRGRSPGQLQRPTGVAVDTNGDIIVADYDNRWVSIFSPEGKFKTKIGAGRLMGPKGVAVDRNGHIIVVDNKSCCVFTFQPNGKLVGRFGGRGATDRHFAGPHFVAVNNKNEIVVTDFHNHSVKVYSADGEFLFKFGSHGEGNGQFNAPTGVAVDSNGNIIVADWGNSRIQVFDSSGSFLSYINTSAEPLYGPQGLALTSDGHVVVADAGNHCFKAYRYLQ

GST-tagged TRIM3 I50A = target: T2, GST-tagged TRIM3 I50A (mouse, UniProt Q9R1R2 1-744, I50A)
T2 sequence (looked up): T1 sequence (looked up) with A48N, I50A

GST-tagged TRIM3 Y49A = target: T3, GST-tagged TRIM3 Y49A (mouse, UniProt Q9R1R2 1-744, Y49A)
T3 sequence (looked up): T1 sequence (looked up) with A48N, Y49A

GST-tagged TRIM3 L55A = target: T4, GST-tagged TRIM3 L55A (mouse, UniProt Q9R1R2 1-744, L55A)
T4 sequence (looked up): T1 sequence (looked up) with A48N, L55A

binding result (GST-tagged TRIM3 N48A): binds
binding result (GST-tagged TRIM3 I50A): binds
binding result (GST-tagged TRIM3 Y49A): binds
binding result (GST-tagged TRIM3 L55A): binds
B1: His-tagged p21 (wild-type) (natural protein, UniProt P39689 1-159, looked up)
chain: MSNPGDVRPVPHRSKVCRCLFGPVDSEQLRRDCDALMAGCLQEARERWNFDFVTETPLEGNFVWERVRSLGLPKVYLSPGSRSRDDLGGDKRPSTSSALLQGPAPEDHVALSLSCTLVSERPEDSPGGPGTSQGRKRRQTSLTDFYHSKRRLVFCKRKP
